Reference: publication PMC12990809

Tests used:
Experiment in all cases: pulldown
[1] = target: T1, LmjF.29.1350 (Leishmania major) (UniProt E9ADZ4); settings: 20 nM protein, 1.5 uM RNA pool; 20 mM HEPES pH 7.8, 70 mM KCl, 10 mM NaCl, 10% glycerol, 2 mM DTT, 0.1 ug/uL BSA; 30 min, 4 C
T1 sequence: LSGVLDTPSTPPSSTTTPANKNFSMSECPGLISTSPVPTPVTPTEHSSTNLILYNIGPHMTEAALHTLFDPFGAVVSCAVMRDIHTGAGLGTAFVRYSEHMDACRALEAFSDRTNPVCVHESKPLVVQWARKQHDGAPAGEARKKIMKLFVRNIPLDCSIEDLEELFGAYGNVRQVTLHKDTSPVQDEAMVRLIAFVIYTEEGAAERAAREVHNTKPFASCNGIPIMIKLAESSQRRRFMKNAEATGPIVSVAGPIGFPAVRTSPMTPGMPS

[2] = target: T2, SCHCODRAFT_35516 S109T;I250V (Schizophyllum commune) (UniProt A0ACF2EGB7); settings: 20 nM protein, 1.5 uM RNA pool; 20 mM HEPES pH 7.8, 70 mM KCl, 10 mM NaCl, 10% glycerol, 2 mM DTT, 0.1 ug/uL BSA; 30 min, 4 C
T2 sequence: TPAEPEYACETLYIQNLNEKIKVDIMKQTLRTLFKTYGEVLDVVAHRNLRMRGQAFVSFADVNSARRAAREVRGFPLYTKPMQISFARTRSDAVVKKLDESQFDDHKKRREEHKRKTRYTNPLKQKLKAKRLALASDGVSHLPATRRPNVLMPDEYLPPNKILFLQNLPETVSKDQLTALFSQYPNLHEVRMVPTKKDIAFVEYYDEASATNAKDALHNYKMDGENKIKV

[3] = target: T3, NEMVEDRAFT_v1g141408 (Nematostella vectensis) (UniProt A7T170); settings: 20 nM protein, 1.5 uM RNA pool; 20 mM HEPES pH 7.8, 70 mM KCl, 10 mM NaCl, 10% glycerol, 2 mM DTT, 0.1 ug/uL BSA; 30 min, 4 C
T3 sequence: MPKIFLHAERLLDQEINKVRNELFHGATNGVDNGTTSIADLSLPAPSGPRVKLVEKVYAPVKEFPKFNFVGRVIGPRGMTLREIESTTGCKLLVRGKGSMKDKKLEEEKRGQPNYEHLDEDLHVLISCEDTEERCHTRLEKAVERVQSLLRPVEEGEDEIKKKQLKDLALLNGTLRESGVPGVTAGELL

[4] = target: T4, PK10695.1 (Cannabis sativa) (UniProt A0A803NZQ3); settings: 20 nM protein, 1.5 uM RNA pool; 20 mM HEPES pH 7.8, 70 mM KCl, 10 mM NaCl, 10% glycerol, 2 mM DTT, 0.1 ug/uL BSA; 30 min, 4 C
T4 sequence: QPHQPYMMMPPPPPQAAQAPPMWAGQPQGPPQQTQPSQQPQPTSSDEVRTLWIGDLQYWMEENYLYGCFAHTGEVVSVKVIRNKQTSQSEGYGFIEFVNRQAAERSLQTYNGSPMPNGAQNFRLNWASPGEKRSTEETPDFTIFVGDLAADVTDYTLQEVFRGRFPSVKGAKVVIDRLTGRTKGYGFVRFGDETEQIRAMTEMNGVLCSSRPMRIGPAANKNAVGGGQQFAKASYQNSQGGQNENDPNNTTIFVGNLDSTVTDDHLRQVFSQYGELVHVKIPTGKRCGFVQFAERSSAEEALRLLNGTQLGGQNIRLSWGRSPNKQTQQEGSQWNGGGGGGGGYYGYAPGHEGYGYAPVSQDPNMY

[5] = target: T5, Tb10.389.1650 (Trypanosoma brucei) (UniProt Q389D4); settings: 20 nM protein, 1.5 uM RNA pool; 20 mM HEPES pH 7.8, 70 mM KCl, 10 mM NaCl, 10% glycerol, 2 mM DTT, 0.1 ug/uL BSA; 30 min, 4 C
T5 sequence: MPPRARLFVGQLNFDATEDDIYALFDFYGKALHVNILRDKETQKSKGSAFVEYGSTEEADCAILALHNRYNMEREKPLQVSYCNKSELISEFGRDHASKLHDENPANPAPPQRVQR

[6] = target: T6, LmjF.32.2810 (Leishmania major) (UniProt Q4Q4Z4); settings: 20 nM protein, 1.5 uM RNA pool; 20 mM HEPES pH 7.8, 70 mM KCl, 10 mM NaCl, 10% glycerol, 2 mM DTT, 0.1 ug/uL BSA; 30 min, 4 C
T6 sequence: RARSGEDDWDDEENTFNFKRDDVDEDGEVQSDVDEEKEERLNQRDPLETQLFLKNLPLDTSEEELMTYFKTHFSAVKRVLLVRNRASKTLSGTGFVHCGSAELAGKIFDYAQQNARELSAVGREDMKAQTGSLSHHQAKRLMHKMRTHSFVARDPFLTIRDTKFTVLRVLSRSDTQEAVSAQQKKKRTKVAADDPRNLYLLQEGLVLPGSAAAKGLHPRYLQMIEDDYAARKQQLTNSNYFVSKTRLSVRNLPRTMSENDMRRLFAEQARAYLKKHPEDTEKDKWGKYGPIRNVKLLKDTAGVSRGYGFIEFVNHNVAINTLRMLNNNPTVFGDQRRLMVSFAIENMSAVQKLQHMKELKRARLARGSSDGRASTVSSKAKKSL

[7] = target: ELAVL1 (Homo sapiens) (UniProt Q15717); settings: 20 nM protein, 1.5 uM RNA pool; 20 mM HEPES pH 7.8, 70 mM KCl, 10 mM NaCl, 10% glycerol, 2 mM DTT, 0.1 ug/uL BSA; 30 min, 4 C (protocol of this paper; not …); cited from earlier work
ELAVL1 (Homo sapiens), sequence (Q15717 1-325): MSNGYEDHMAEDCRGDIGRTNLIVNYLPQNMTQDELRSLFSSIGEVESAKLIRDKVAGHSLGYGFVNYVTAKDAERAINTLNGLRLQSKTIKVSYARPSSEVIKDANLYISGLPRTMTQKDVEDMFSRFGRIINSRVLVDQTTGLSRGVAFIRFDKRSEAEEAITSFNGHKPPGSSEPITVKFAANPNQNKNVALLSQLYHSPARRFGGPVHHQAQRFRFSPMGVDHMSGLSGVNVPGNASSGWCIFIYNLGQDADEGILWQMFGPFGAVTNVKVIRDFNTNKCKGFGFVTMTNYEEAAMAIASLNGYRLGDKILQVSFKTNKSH

[8] = target: T7, LmjF.29.0680 D253N (Leishmania major) (UniProt E9ADS0); settings: 20 nM protein, 1.5 uM RNA pool; 20 mM HEPES pH 7.8, 70 mM KCl, 10 mM NaCl, 10% glycerol, 2 mM DTT, 0.1 ug/uL BSA; 30 min, 4 C
T7 sequence: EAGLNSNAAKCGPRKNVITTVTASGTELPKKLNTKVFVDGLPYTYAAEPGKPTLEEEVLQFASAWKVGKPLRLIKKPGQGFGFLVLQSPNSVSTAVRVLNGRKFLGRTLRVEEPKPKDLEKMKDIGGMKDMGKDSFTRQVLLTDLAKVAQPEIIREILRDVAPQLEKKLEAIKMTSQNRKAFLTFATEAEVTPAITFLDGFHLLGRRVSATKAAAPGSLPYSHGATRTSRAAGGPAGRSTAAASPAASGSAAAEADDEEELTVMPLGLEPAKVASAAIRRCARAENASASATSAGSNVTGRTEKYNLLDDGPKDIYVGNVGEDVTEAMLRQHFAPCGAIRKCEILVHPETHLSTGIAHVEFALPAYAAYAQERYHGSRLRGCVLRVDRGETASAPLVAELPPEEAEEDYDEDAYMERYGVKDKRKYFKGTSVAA

[9] = target: T8, SCHCODRAFT_72118 N130T;T236A;D255N (Schizophyllum commune) (UniProt A0ACF2F787); settings: 20 nM protein, 1.5 uM RNA pool; 20 mM HEPES pH 7.8, 70 mM KCl, 10 mM NaCl, 10% glycerol, 2 mM DTT, 0.1 ug/uL BSA; 30 min, 4 C
T8 sequence: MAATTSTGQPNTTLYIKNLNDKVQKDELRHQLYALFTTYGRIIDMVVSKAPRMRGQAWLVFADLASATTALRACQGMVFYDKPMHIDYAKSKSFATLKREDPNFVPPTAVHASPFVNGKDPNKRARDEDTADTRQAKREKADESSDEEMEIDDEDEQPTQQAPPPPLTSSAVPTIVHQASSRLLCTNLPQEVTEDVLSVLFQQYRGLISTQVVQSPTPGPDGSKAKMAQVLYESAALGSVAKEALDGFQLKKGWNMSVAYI

[10] = target: T9, LmjF.30.2180 (Leishmania major) (UniProt Q4Q775); settings: 20 nM protein, 1.5 uM RNA pool; 20 mM HEPES pH 7.8, 70 mM KCl, 10 mM NaCl, 10% glycerol, 2 mM DTT, 0.1 ug/uL BSA; 30 min, 4 C
T9 sequence: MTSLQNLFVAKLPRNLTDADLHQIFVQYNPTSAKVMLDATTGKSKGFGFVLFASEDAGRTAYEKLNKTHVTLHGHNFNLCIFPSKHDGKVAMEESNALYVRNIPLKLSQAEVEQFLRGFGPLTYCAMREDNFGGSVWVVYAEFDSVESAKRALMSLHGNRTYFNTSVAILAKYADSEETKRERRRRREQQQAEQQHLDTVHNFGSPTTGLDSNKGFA

CAUAGU [RNAcompete motif RNCMPT00713]
binding signal (z-score (mean of top ten 7-mers)) [1]: 24.5

UAGCACA [RNAcompete motif RNCMPT00725]
binding signal (z-score (mean of top ten 7-mers)) [2]: 10.8

ACUAAC [RNAcompete motif RNCMPT00718]
binding signal (z-score (mean of top ten 7-mers)) [3]: 18.9

UUUAUUUU [RNAcompete motif RNCMPT00741]
binding signal (z-score (mean of top ten 7-mers)) [4]: 10.2

UUUGCU [RNAcompete motif RNCMPT00732]
binding signal (z-score (mean of top ten 7-mers)) [5]: 18.9

GUAGNA [RNAcompete motif RNCMPT00716]
binding signal (z-score (mean of top ten 7-mers)) [6]: 6.94

UUAUUUU [RNAcompete motif RNCMPT00032]
binding signal (z-score (mean of top ten 7-mers)) [7]: 15

GAAGGA [RNAcompete motif RNCMPT00720]
binding signal (z-score (mean of top ten 7-mers)) [8]: 7.49

UGCACA [RNAcompete motif RNCMPT00723]
binding signal (z-score (mean of top ten 7-mers)) [9]: 8.86

UCAAAA [RNAcompete motif RNCMPT00715]
binding signal (z-score (mean of top ten 7-mers)) [10]: 22.8
